Data on 38 molecules can be found in publication PMC9352680, “A comprehensive thermodynamic model for RNA binding by the Saccharomyces cerevisiae Pumilio protein PUF4”.

T1: PUF4 RNA-binding domain (Saccharomyces cerevisiae, UniProt P25339 537-888)
T1 sequence: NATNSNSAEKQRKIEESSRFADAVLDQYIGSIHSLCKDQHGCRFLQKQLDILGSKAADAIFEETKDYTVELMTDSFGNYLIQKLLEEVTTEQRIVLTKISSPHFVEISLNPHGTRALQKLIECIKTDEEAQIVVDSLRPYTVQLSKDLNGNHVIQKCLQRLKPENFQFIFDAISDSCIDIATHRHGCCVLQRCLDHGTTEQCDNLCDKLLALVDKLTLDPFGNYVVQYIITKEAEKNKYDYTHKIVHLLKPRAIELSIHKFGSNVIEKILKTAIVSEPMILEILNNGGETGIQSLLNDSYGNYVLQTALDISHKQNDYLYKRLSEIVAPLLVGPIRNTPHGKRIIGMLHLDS

B1: Id_i_S4_P3E.5_K3.1_C3.3_[T-3C]_[C-2G]_[T-1C]_H3.1_A3.1_F3.1_T3.2 (ssRNA)
RNA: UUUGACAACUGAUCGUUCUUUCUCGCUGUAUAUAUAUUCUUUCUCGAUCAGUUGUCUUU
B2: Id_i_S4_P3E.6_K3.2_C3.3_[T-3C]_[C-2T]_[T-1G]_H3.2_A3.1_F3.1_T3.2 (ssRNA)
RNA: UUUGACAACUGAUCGUUCUUUCUCUGUAUAUAUAUAUUCUUUCUCGAUCAGUUGUCUUU
B3: Id_i_S4_P3E.6_K3.2_C3.3_[T-3A]_[C-2G]_[T-1C]_H3.2_A3.1_F3.1_T3.2 (ssRNA)
RNA: UUUGACAACUGAUCGUUCUUUCUAGCUAUAUAUAUAUUCUUUCUCGAUCAGUUGUCUUU
B4: Id_i_S4_P3E.6_K3.2_C3.3_[T-3G]_[C-2G]_[T-1C]_H3.2_A3.1_F3.1_T3.2 (ssRNA)
RNA: UUUGACAACUGAUCGUUCUUUCUGGCUAUAUAUAUAUUCUUUCUCGAUCAGUUGUCUUU
B5: Id_i_S4_P3E.6_K3.2_C3.3_[T-3C]_[C-2T]_[T-1A]_H3.2_A3.1_F3.1_T3.2 (ssRNA)
RNA: UUUGACAACUGAUCGUUCUUUCUCUAUAUAUAUAUAUUCUUUCUCGAUCAGUUGUCUUU
B6: Id_i_S4_P3E.7_K3.3_C3.3_[T-3C]_[C-2A]_[T-1G]_H3.3_A3.1_F3.1_T3.2 (ssRNA)
RNA: UUUGACAACUGAUCGUUCUUUCUCAGACACUAUAUAUUCUUUCUCGAUCAGUUGUCUUU
B7: Id_i_S4_P3E.7_K3.3_C3.3_[T-3C]_[C-2T]_[T-1A]_H3.3_A3.1_F3.1_T3.2 (ssRNA)
RNA: UUUGACAACUGAUCGUUCUUUCUCUAACACUAUAUAUUCUUUCUCGAUCAGUUGUCUUU
B8: Id_i_S4_P3E.7_K3.3_C3.3_[T-3A]_[C-2A]_[T-1A]_H3.3_A3.1_F3.1_T3.2 (ssRNA)
RNA: UUUGACAACUGAUCGUUCUUUCUAAAACACUAUAUAUUCUUUCUCGAUCAGUUGUCUUU
B9: Id_i_S4_P3E.7_K3.3_C3.3_[T-3C]_[C-2A]_[T-1A]_H3.3_A3.1_F3.1_T3.2 (ssRNA)
RNA: UUUGACAACUGAUCGUUCUUUCUCAAACACUAUAUAUUCUUUCUCGAUCAGUUGUCUUU
B10: Id_i_S4_P3E.5_K3.1_C3.3_[T-3A]_[C-2T]_[T-1C]_H3.1_A3.1_F3.1_T3.2 (ssRNA)
RNA: UUUGACAACUGAUCGUUCUUUCUAUCUGUAUAUAUAUUCUUUCUCGAUCAGUUGUCUUU
B11: Id_i_S4_P3E.5_K3.1_C3.3_[T-3C]_[C-2T]_[T-1G]_H3.1_A3.1_F3.1_T3.2 (ssRNA)
RNA: UUUGACAACUGAUCGUUCUUUCUCUGUGUAUAUAUAUUCUUUCUCGAUCAGUUGUCUUU
B12: Id_i_S4_P3E.6_K3.2_C3.3_[T-3C]_[C-2A]_[T-1C]_H3.2_A3.1_F3.1_T3.2 (ssRNA)
RNA: UUUGACAACUGAUCGUUCUUUCUCACUAUAUAUAUAUUCUUUCUCGAUCAGUUGUCUUU
B13: Id_i_S4_P3E.7_K3.3_C3.3_[T-3C]_[C-2T]_[T-1G]_H3.3_A3.1_F3.1_T3.2 (ssRNA)
RNA: UUUGACAACUGAUCGUUCUUUCUCUGACACUAUAUAUUCUUUCUCGAUCAGUUGUCUUU
B14: Id_i_S4_P3E.7_K3.3_C3.3_[T-3A]_[C-2T]_[T-1C]_H3.3_A3.1_F3.1_T3.2 (ssRNA)
RNA: UUUGACAACUGAUCGUUCUUUCUAUCACACUAUAUAUUCUUUCUCGAUCAGUUGUCUUU
B15: Id_i_S4_P3E.7_K3.3_C3.3_[T-3A]_[C-2T]_[T-1A]_H3.3_A3.1_F3.1_T3.2 (ssRNA)
RNA: UUUGACAACUGAUCGUUCUUUCUAUAACACUAUAUAUUCUUUCUCGAUCAGUUGUCUUU
B16: Id_i_S4_P3E.2_K3.1_C3.2_[C-2T]_[T-1G]_H3.1_A3.1_F3.1_T3.2 (ssRNA)
RNA: UUUGACAACUGAUCGUUCUUUCUUGUGUAUAUAUAUUCUUUCUCGAUCAGUUGUCUUU
B17: Id_i_S4_P3E.3_K3.2_C3.2_[C-2T]_[T-1C]_H3.2_A3.1_F3.1_T3.2 (ssRNA)
RNA: UUUGACAACUGAUCGUUCUUUCUUCUAUAUAUAUAUUCUUUCUCGAUCAGUUGUCUUU
B18: Id_i_S4_P3E.2_K3.1_C3.2_[C-2T]_[T-1A]_H3.1_A3.1_F3.1_T3.2 (ssRNA)
RNA: UUUGACAACUGAUCGUUCUUUCUUAUGUAUAUAUAUUCUUUCUCGAUCAGUUGUCUUU
B19: Id_i_S4_P3E.2_K3.1_C3.2_[C-2T]_[T-1C]_H3.1_A3.1_F3.1_T3.2 (ssRNA)
RNA: UUUGACAACUGAUCGUUCUUUCUUCUGUAUAUAUAUUCUUUCUCGAUCAGUUGUCUUU
B20: Id_i_S4_P3E.3_K3.2_C3.2_[C-2T]_[T-1G]_H3.2_A3.1_F3.1_T3.2 (ssRNA)
RNA: UUUGACAACUGAUCGUUCUUUCUUGUAUAUAUAUAUUCUUUCUCGAUCAGUUGUCUUU
B21: Id_i_S4_P3E.4_K3.3_C3.2_[C-2T]_[T-1C]_H3.3_A3.1_F3.1_T3.2 (ssRNA)
RNA: UUUGACAACUGAUCGUUCUUUCUUCACACUAUAUAUUCUUUCUCGAUCAGUUGUCUUU
B22: Id_ii_S4_P3E.4_K3.3_C3.2_[C-2G]_[T-1C]_H3.3_A3.1_F3.1_T3.2 (ssRNA)
RNA: UUUGACAACUGAUCGUUCUUUCUGCACACUAUAUAUUCUUUCUCGAUCAGUUGUCUUU
B23: Id_i_S4_P3E.4_K3.3_C3.2_[C-2A]_[T-1C]_H3.3_A3.1_F3.1_T3.2 (ssRNA)
RNA: UUUGACAACUGAUCGUUCUUUCUACACACUAUAUAUUCUUUCUCGAUCAGUUGUCUUU

The target of the series is T1, PUF4 RNA-binding domain. The series is described as follows: Mg; RNA-MaP; 20 mM Na-HEPES pH 7.4, 30 mM KOAc, 0.75 mM MgCl2, 0.1% Tween-20, 5% glycerol, 0.1 mg/mL BSA, 2 mM DTT; 25 C; 0.0125-409.6 nM protein. Particulars: tags: N-His6-TEV cleaved; C-SNAP kept, Cy3B-labelled; label: tethered on chip by stalled RNA polymerase.
By Kd is commonly meant a measure of binding affinity in units of concentration. Low readings indicate tighter binding, high ones weaker binding. For the molecule ACAAACCGGUAUAUAUAUAACAAAC (ssRNA) [Id_i_S3_P3E.6_K3.2_C3.3_[T-3C]_[C-2G]_[T-1G]_H3.2_A3.1_F3.1_T3.2], the Kd is 1060 nM. ACAAACGGCUAUAUAUAUAACAAAC (ssRNA) [Id_i_S3_P3E.6_K3.2_C3.3_[T-3G]_[C-2G]_[T-1C]_H3.2_A3.1_F3.1_T3.2]: the Kd worked out at 1360 nM. Consider UCUCUUCGUGUAUUAUCUCUU (ssRNA) [Ib_S1_P4E.1_K4.1_C4.1_H4.1_[T1C]_[A4G]_A4.1_F4.1_T4.1], for which the Kd amounted to 33.2 nM. Consider ACAAACAAGUAUAUAUAUAACAAAC (ssRNA) [Id_i_S3_P3E.6_K3.2_C3.3_[T-3A]_[C-2A]_[T-1G]_H3.2_A3.1_F3.1_T3.2], for which binding was characterised by a dissociation constant (Kd) of 316 nM. Regarding B1, binding was put at a Kd of 1.51 nM. With B2 the figure was 1.92 nM; with B3, 537 nM. In turn, B4 showed a Kd of 1420 nM. With B5, the Kd stood at 500 nM. In turn, B6 yielded a Kd of 572 nM.

B7: binding was characterised by a dissociation constant (Kd) of 113 nM. The result for B8 reads 451 nM; that for B9, 110 nM; that for B10, 1.98 nM. The result for B11 reads 1.5 nM. The molecule B12 returned a Kd of 56.5 nM. With B13 the figure was 424 nM; with B14, 346 nM; with B15, 571 nM. On to ACAAACAGGUAUAUAUAUAACAAAC (ssRNA) [Id_i_S3_P3E.6_K3.2_C3.3_[T-3A]_[C-2G]_[T-1G]_H3.2_A3.1_F3.1_T3.2], for which binding was put at a Kd of 566 nM. The result for UCUCUUUGUAUGUUAUCUCUU (ssRNA) [Ic_S1_P4E.1_K4.1_C4.1_H4.1_A4.1_[A6G]_F4.1_T4.1] reads 4.82 nM.

Consider UCUCUUCGUUUAUUAUCUCUU (ssRNA) [Ib_S1_P4E.1_K4.1_C4.1_H4.1_[T1C]_[A4T]_A4.1_F4.1_T4.1], for which the Kd was above 2300 nM. With ACAAACGGAACACUAUAUAACAAAC (ssRNA) [Id_i_S3_P3E.7_K3.3_C3.3_[T-3G]_[C-2G]_[T-1A]_H3.3_A3.1_F3.1_T3.2] the figure was 1440 nM. With ACAAACACACACUAUAUAACAAAC (ssRNA) [Id_i_S3_P3E.4_K3.3_C3.2_[C-2A]_[T-1C]_H3.3_A3.1_F3.1_T3.2] the figure was above 2300 nM; with ACAAACCAAACACUAUAUAACAAAC (ssRNA) [Id_i_S3_P3E.7_K3.3_C3.3_[T-3C]_[C-2A]_[T-1A]_H3.3_A3.1_F3.1_T3.2], above 2300 nM; with UCUCUUAAUAUAUUAUCUCUU (ssRNA) [Ib_S1_P4E.1_K4.1_C4.1_H4.1_[T1A]_[G2A]_A4.1_F4.1_T4.1], 564 nM.

For the molecule UCUCUUAGCAUAUUAUCUCUU (ssRNA) [Ib_S1_P4E.1_K4.1_C4.1_H4.1_[T1A]_[T3C]_A4.1_F4.1_T4.1], the Kd was found to be 1930 nM.

The molecule ACAAACCUCUAUAUAUAUAACAAAC (ssRNA) [Id_i_S3_P3E.6_K3.2_C3.3_[T-3C]_[C-2T]_[T-1C]_H3.2_A3.1_F3.1_T3.2] yielded a Kd of 219 nM. The result for ACAAACAUAACACUAUAUAACAAAC (ssRNA) [Id_i_S3_P3E.7_K3.3_C3.3_[T-3A]_[C-2T]_[T-1A]_H3.3_A3.1_F3.1_T3.2] reads above 2300 nM. With ACAAACAUCACACUAUAUAACAAAC (ssRNA) [Id_i_S3_P3E.7_K3.3_C3.3_[T-3A]_[C-2T]_[T-1C]_H3.3_A3.1_F3.1_T3.2] the figure was 2250 nM; with B16, 1.47 nM; with B17, 68.1 nM. As for B18, the Kd was 4.77 nM. The molecule B19 registered a Kd of 0.82 nM.

As to B20, the Kd amounted to 4.75 nM.

On to B21, for which the Kd came out at 202 nM.

Consider B22, for which the Kd is 30.3 nM. With B23 the figure was 295 nM.
